Assay results published in publication PMC2774616, “Cellular Assays for High-Throughput Screening for Modulators of Trk Receptor Tyrosine Kinases” (Current Chemical Genomics, 2008).

Assays:
Assay type in all cases: cell-based
[1] = tested on: thapsigargin-induced NFAT-bla reporter activity; assay: Effect of RNAi oligos on thapsigargin-induced NFAT-bla reporter activity in TrkA-, TrkB- and TrkC-NFAT-bla CHO-K1 cells; conditions: all three cell lines, 50 nM RNAi oligo, Thapsigargin 30 nM 5 h
Method: Cells were plated in 96-well assay plates (Corning, catalog number 3603) at 6,000 cells/well in 100 µL growth medium (DMEM containing 10% dialyzed FBS, 0.1 mM NEAA and 25 mM HEPES), and incubated in 37°C, 5% CO2 incubator overnight. Next morning, Stealth™ RNAi (Invitrogen, catalog number 10620318) and Lipofectamine^TM RNAiMAX (Invitrogen, catalog number 13778) complexes were prepared according to the manufacturer’s protocol and added to the wells (50 nM RNAi oligos and 1µL RNAiMAX/well). RNAi oligo targeting for beta-lactamase was used as the positive control and a random-sequenced oligo with 48% GC content (Med GC) as the negative control. A set of 2 oligos for each Trk was used:
Cells were incubated with RNAi oligos at 37°C for 32 hours, followed by a medium change. Cells were incubated in Assay Medium at 37 °C for 16 hours and then stimulated with respective ligands (NGF, 0.77 nM; BDNF, 1 nM; NT-3, 0.72 nM and Thapsigargin, 30 nM) for 5 hours before beta-lactamase assay was performed as described above.

human TrkA = target: T1, human TrkA (Homo sapiens, UniProt P04629); assay: Neurotrophin dose response, beta-lactamase reporter assay in TrkA-NFAT-bla CHO-K1 cells; conditions: for EC50: 5 h stimulation, 0.1% DMSO, * values may not be accurate, curves did not reach saturation; for response of TrkA-NFAT-bla CHO-K1 cells (in words): up to 50 nM
T1 construct: Full length human TRKA, TRKB and TRKC cDNAs were synthesized by Blue Heron Biotechnology; expressed in transfected cells
T1 sequence (P04629 33-796): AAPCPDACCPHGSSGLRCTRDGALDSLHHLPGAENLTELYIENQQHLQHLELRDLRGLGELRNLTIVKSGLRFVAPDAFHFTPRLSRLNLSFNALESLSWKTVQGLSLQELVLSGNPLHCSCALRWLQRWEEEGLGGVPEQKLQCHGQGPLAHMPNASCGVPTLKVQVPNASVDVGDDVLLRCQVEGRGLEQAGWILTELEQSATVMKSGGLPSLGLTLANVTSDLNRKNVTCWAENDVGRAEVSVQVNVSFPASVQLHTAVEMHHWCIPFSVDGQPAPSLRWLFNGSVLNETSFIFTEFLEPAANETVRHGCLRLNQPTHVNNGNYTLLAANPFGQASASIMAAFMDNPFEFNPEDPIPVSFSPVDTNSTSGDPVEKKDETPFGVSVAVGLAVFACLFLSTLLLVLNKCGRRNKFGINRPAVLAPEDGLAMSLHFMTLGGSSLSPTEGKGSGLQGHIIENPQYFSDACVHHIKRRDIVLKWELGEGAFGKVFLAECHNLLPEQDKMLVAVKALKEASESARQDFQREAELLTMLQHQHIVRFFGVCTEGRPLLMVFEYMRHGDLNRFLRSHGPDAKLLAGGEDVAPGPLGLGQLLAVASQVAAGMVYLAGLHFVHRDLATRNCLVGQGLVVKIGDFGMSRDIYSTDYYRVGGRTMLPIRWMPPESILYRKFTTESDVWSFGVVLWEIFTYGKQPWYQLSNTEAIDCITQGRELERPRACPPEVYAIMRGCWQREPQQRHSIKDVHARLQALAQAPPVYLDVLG
From the text: (§1) NFAT beta-lactamase reporter line NFAT-bla CHO-K1 cells (Invitrogen, Carlsbad, CA, catalog number K1078) were transfected using Lipofectamine™ LTX transfection reagent (Invitrogen, Carlsbad, CA) with pcDNA6-TRKA, pcDNA6-TRKB and pcDNA6-TRKC and selected for blasticidin-resistance. Blasticidin-resistant TrkA transfected cells were stimulated with NGF (Invitrogen, catalog number 13257-019), TrkB transfected cells with BDNF (Invitrogen, catalog number PHC7074) and TrkC transfected cells with NT-3 (Invitrogen, catalog number PHC7034) for 5 hours before neurotrophin stimulated beta-lactamase expressing cells were collected by FACS as single cells onto 96-well plates. The survived clones that responded to the respective ligand were selected and expanded. The clone with the best response to each ligand was further tested in a 384-well format for the dose response of neurotrophins and inhibitors and in a 96-well format for RNAi knock-down.
(§2) Cells in a sub-confluency state (or cryopreserved cells) were resuspended in Assay Medium (DMEM with GlutaMAX™ (Invitrogen, catalog number 10569) supplemented with 0.1% dialyzed FBS, 0.1 mM NEAA, 25 mM HEPES, 100 U/mL Penicillin and 100 µg/mL Streptomycin) and plated in a 384-well assay plate (Corning, Lowell, MA, catalog number 3712) at 10,000 cells (32 μL) per well. 32 μL of Assay Medium without cells were plated in Cell-free Control wells on the same plate. 4 µL 1% DMSO was added to each well to reach final DMSO concentration of 0.1% to mimic the screening situation where compounds dissolved in DMSO are added to test wells. Cells were then stimulated with 4 µL/well 10 x ligands (NGF, BDNF, NT-4 (Invitrogen, catalog number PHC7024), NT-3 or Thapsigargin (Sigma, St. Louis, MO)) over the indicated concentration range (1 pM ~ 50000 pM) for 5 hours before adding 8 µL/well 6X LiveBLAzer™-FRET B/G Substrate mixture (Invitrogen, catalog number K1096) for 2 hours. Fluorescence intensity at excitation 406 nm and emission 460 nm and 530 nm were obtained using Tecan Safire^2 fluorescence plate reader (Tecan, Durham, NC) (Table 1). After subtracting the average fluorescence intensity from the Cell-free Control wells, the 460nm/530nm emission ratio was calculated. Response Ratio is a measurement of the assay window and is calculated as the 460nm/530nm Emission Ratio of the stimulated wells divided by the 460nm/530nm Emission Ratio of the unstimulated wells. Response Ratios were plotted against test ligand concentrations in log scale and then analyzed using Prism software (GraphPad Software, Inc. San Diego, CA). Sigmoidal dose-response equation with varying slope was used to fit the data and generate EC50 values. Z’-factor values were calculated as: Z’-factor = 1 - [(3 x stdevunstim + 3 x stdevmaxstim) / (avgmaxstim – avgunstim)].

human TrkB = target: T2, human TrkB (Homo sapiens, UniProt Q16620); assay: Neurotrophin dose response, beta-lactamase reporter assay in TrkB-NFAT-bla CHO-K1 cells; conditions: for maximum response ratio, TrkB-NFAT-bla CHO-K1: 460nm/530nm ratio stimulated vs unstimulated; for EC50: 5 h stimulation, 0.1% DMSO
T2 construct: Full length human TRKA, TRKB and TRKC cDNAs were synthesized by Blue Heron Biotechnology; expressed in transfected cells
T2 sequence (Q16620 32-838 isoform Q16620-4 limits assumed): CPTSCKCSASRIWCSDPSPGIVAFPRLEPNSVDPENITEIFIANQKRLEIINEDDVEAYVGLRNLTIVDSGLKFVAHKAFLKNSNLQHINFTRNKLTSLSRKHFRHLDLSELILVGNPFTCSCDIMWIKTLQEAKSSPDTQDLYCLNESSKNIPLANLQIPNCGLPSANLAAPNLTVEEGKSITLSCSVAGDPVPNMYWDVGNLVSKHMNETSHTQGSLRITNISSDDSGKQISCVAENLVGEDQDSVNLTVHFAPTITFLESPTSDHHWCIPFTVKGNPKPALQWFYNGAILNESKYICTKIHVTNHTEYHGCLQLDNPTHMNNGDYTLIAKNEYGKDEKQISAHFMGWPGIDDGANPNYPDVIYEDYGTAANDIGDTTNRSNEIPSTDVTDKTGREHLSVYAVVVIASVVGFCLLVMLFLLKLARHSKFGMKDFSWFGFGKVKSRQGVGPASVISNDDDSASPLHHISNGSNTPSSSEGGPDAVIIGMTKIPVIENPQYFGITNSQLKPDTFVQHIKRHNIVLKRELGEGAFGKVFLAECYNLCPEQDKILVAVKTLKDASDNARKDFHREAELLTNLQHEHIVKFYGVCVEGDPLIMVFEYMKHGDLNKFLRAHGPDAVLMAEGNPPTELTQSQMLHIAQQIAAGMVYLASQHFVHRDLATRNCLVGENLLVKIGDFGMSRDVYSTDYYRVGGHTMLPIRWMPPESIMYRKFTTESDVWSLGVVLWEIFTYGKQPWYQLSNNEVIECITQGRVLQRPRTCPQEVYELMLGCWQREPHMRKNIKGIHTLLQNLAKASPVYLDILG
From the text: as §1, §2

human TrkC = target: T3, human TrkC (Homo sapiens, UniProt Q16288); assay: Neurotrophin dose response, beta-lactamase reporter assay in TrkC-NFAT-bla CHO-K1 cells; conditions: for EC50: 5 h stimulation, 0.1% DMSO, * values may not be accurate, curves did not reach saturation; for response of TrkC-NFAT-bla CHO-K1 cells (in words): up to 50 nM
T3 construct: Full length human TRKA, TRKB and TRKC cDNAs were synthesized by Blue Heron Biotechnology; expressed in transfected cells
T3 sequence (Q16288 32-825 isoform Q16288-3 limits assumed): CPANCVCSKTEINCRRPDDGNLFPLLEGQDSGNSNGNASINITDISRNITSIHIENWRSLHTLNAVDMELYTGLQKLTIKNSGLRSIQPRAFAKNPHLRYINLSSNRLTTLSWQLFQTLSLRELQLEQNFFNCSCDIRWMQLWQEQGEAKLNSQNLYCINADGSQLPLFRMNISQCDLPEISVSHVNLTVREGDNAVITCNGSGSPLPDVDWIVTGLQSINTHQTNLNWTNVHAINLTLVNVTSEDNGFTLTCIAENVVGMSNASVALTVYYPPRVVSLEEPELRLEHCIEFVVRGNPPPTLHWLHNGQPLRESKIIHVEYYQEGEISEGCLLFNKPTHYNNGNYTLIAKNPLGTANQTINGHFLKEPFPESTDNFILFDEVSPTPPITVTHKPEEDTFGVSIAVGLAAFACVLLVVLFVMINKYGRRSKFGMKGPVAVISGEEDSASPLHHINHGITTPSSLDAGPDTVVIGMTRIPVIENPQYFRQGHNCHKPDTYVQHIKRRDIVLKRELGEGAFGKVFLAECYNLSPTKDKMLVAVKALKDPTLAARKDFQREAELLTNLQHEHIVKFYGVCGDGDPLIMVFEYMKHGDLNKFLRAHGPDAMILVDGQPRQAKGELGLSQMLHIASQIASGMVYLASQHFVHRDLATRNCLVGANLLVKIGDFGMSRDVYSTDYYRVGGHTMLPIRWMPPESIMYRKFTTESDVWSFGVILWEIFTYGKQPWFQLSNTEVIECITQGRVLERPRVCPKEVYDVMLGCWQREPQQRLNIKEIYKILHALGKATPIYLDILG
From the text: as §1, §2

[2] = used for stimulation in inhibitor assay

“TRKB2: Stealth RNAi oligo for TrkB, ACACCACGAACAGAAGUAAUGAAAU (Stealth RNAi oligo, modification pattern not given here)” was tested, and the “inhibitory effect on thapsigargin-induced NFAT-bla reporter activity” value [1] was “about 50%”.

For “TRKC2: Stealth RNAi oligo for TrkC, CCAGACCAAUCUGAACUGGACCAAU (Stealth RNAi oligo, modification pattern not given here)”, the “effect on thapsigargin-induced NFAT-bla reporter activity (in words)” value [1] was “did not inhibit”.

B1: NT-4: neurotrophin 4, ligand of TrkB (protein, UniProt P34130 81-210, looked up)
Neurotrophin-4: GVSETAPASRRGELAVCDAVSGWVTDRRTAVDLRGREVEVLGEVPAAGGSPLRQYFFETRCKADNAEEGGPGAGGGGCRGVDRRHWVSECKAKQSYVRALTADAQGRVGWRWIRIDTACVCTLLSRTGRA
For B1, the EC50 (human TrkA) was greater than 50 nM, the “response of TrkA-NFAT-bla CHO-K1 cells (in words)” value (human TrkA) was “minimal effect” and the “maximum response ratio, TrkB-NFAT-bla CHO-K1” value (human TrkB) was 13. The EC50 (human TrkB) was 3.5 nM, the EC50 (human TrkC) was greater than 50 nM and the “response of TrkC-NFAT-bla CHO-K1 cells (in words)” value (human TrkC) was “did not show any response”.

B2: BDNF: brain-derived neurotrophic factor, neurotrophin, ligand of TrkB (protein, UniProt P23560 19-247, looked up)
Neurotrophic factor BDNF …: APMKEANIRGQGGLAYPGVRTHGTLESVNGPKAGSRGLTSLADTFEHVIEELLDEDQKVRPNEENNKDADLYTSRVMLSSQVPLEPPLLFLLEEYKNYLDAANMSMRVRRHSDPARRGELSVCDSISEWVTAADKKTAVDMSGGTVTVLEKVPVSKGQLKQYFYETKCNPMGYTKEGCRGIDKRHWNSQCRTTQSYVRALTMDSKKRIGWRFIRIDTSCVCTLTIKRGR
B2 was tested, and the EC50 (human TrkA) was greater than 50 nM, the “response of TrkA-NFAT-bla CHO-K1 cells (in words)” value (human TrkA) was “minimal effect” and the “maximum response ratio, TrkB-NFAT-bla CHO-K1” value (human TrkB) was 14. For the same molecule, the EC50 (human TrkB) was 0.39 nM, the “EC80 concentration, TrkB cells” value (human TrkB; [2]) was 1 nM and the EC50 (human TrkC) was 28 nM. The “response of TrkC-NFAT-bla CHO-K1 cells (in words)” value (human TrkC) was “only at the highest concentration (50 nM) tested”.

B3: NGF: nerve growth factor, neurotrophin, preferred ligand of TrkA (protein, UniProt P01139 122-241, looked up)
Beta-nerve growth factor: SSTHPVFHMGEFSVCDSVSVWVGDKTTATDIKGKEVTVLAEVNINNSVFRQYFFETKCRASNPVESGCRGIDSKHWNSYCTTTHTFVKALTTDEKQAAWRFIRIDTACVCVLSRKATRRG
With B3 the “maximum response ratio / response over baseline, TrkA-NFAT-bla CHO-K1” value (human TrkA; 460nm/530nm ratio stimulated vs unstimulated) was 5.5 fold, the EC50 (human TrkA) was 0.044 nM and the EC50 (human TrkA; listed as NGF 2.5s) was 0.04 nM. For the same molecule, the “EC80 concentration, TrkA cells” value (human TrkA; [2]) was 0.77 nM, the EC50 (human TrkB) was greater than 50 nM and the “response of TrkB-NFAT-bla CHO-K1 cells (in words)” value (human TrkB; up to 50 nM) was “did not respond at all”. For the same molecule, the EC50 (human TrkC) was greater than 50 nM and the “response of TrkC-NFAT-bla CHO-K1 cells (in words)” value (human TrkC) was “did not show any response”.
